# Measurements as given in patent US10508147B2, “Anti-nodal antibodies and methods of using same” (ANN AND ROBERT H. LURIE CHILDREN'S HOSPITAL OF CHICAGO, priority 2014, dated 2019).
# Entries after “also recorded” stand apart in the source; their conditions may differ.
# T1: recombinant Nodal (Homo sapiens, UniProt Q96S42)
# T1 sequence (Q96S42 238-347): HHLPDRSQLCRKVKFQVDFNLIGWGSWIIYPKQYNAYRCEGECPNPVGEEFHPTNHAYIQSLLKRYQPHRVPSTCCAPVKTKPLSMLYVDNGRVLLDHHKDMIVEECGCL
# B1: 3D1: mouse monoclonal anti-Nodal antibody raised against hNodal(44-67); light chain SEQ ID NO:1, heavy chains SEQ ID NO:2 and 3 (protein)
# light: DIKMTQSPASLSASVGETVTITCRASGNIHNYLAWYQQKQGKSPQLLVYNAKTLADGVPSRFSGSGSGTQYSLKINSLQPEDFGSYYCQHFWSTPHVRCWDQAGTETEAW
# heavy 1: VKLVESGGGLVKPGGSLKLSCAASGFTFSSYAMSWVRQTPEKRLEWVASISSGGCTYYPDSVKGRFTISRDNARNILYLQMSSLRSEDTAMYYCARGSMITADGNSLLLCYGLLGSRNLXHR
# heavy 2: VKLVESGGGLVQPGGSMKLSCVASGFTFRNYWMSWVRQSPEKGLEWVAEIRLKSDNYAARYAESVKGKFTISRDDSKSRLYLQMNSLRAEDTGIYYCTGIRRFAYWGQGTL
# modifications: not fully specified; (120)..(120) Xaa can be any naturally occurring amino acid
# What was measured:
# C8161 cells = experiment: Vasculogenic mimicry / vasculogenic network formation assay in 3D culture; assay type: cell-based, human; details: 24 hours, vs IgG control
# Protocol: Untreated cells, or cells treated with either IgG Control or 3D1 anti-Nodal antibody for 72 hours were cultured in soft agar for three weeks (soft agar clonogenic assay). […] C8161 cells were treated with either 4 μg/ml of either Santa Cruz (SC), or 3D1 function blocking anti-Nodal antibodies, or IgG Control and cultured in three dimensional cultures for 24 hours to measure their ability to engage in vasculogenic mimicry (VM).
# Three-dimensional matrices were prepared by spreading 75 μl of ice-cold Matrigel (average 12-15 mg/ml; Corning, Bedford, Mass.) into 12-well culture dishes and polymerized for one hour at 37° C. C8161 human melanoma cells (1×10^5 cells/well) were then plated onto the prepared Matrigel matrices in the presence of either 4 μg/ml mouse IgG control or 3D1 mAb (2.8 μg/ml). No additional antibody was added. Tubular network formation was then observed after 24 hr and images captured digitally using a Zeiss model 25 inverted microscope (Carl Zeiss, Inc, Thornwood, N.Y.) and Hitachi HV-C20 CCD camera (Hitachi Denshi Ltd., Woodbury, N.Y.). Mean values were calculated from images of at least four different fields of both the IgG control and 3D1 mAb treated cultures, and then analyzed using the AngioSys software package (TCS CellWorks, Ltd., Buckingham, UK) with the mean number (±SEM) of junctions and tubules calculated from the analyzed fields.
# [1] = tested on: A375SM human melanoma cell line; experiment: Western blot of A375SM cells treated with BRAFi (dabrafenib) or 3D1; assay type: cell-based; details: 72 hr
# Protocol: (§1) To determine the level of Nodal expression in brain, kidney, liver, pancreas, heart and skeletal muscle ready to use adult tissue extracts for Western blotting (WB) were purchased from Santa Cruz Biotechnology. For WB experiments of cell lines, whole cell lysates were prepared and quantified. SDS-PAGE gel electrophoresis and WB were performed using standard techniques. PVDF membranes were blocked in 5% non-fat milk or 5% BSA and antibodies diluted in either 5% non-fat milk or 5% bovine serum albumin overnight at 4° C., depending on the manufacturer's recommendations. Signal was detected using West Pico chemiluminescence reagent (Thermo Fisher) and exposure to x-ray film.
# C8161 melanoma cells = experiment: Western blot analysis of C8161 melanoma cells treated with anti-Nodal antibody; assay type: cell-based, human; details: for phosphorylation of Smad2 and MAPK (ERK1/2): 1 hr to 72 hr
# Protocol: Experiments were conducted in order to assess and characterize the ability of the 3D1 antibody to inhibit Nodal activity. 3D1 reduced Nodal expression, clonogenicity, and vasculogenic mimicry in metastatic melanoma cells (See FIG. 24). C8161 melanoma cells treated with an IgG-Control (negative control) or 4 μg/ml of either Santa Cruz (SC) (used as positive control) or 3D1 function blocking anti-Nodal antibodies for 72 hours.
# Additional studies were performed in order to determine if 3D1 antibody could alter phosphorylation of Smad2 or MAPK. […] Western blot analysis of C8161 melanoma cells treated with 3D1 (4 μg/ml) vs. untreated control for 1 hr, 2 hr, 4 hr, 6 hr or 72 hr (See FIG. 25).
# as §1
# recombinant Nodal = target: T1, recombinant Nodal; experiment: Sandwich ELISA to detect Nodal with 3D1 as capture antibody; parameters: E. coli derived His238 Leu347, with an N-terminal Met; purchased R&D Systems; details: rabbit monoclonal anti-Nodal for detection
# From the text: A typical calibration curve was obtained using a sandwich ELISA assay developed to detect Nodal (detection limit 50 pg/well) (See FIG. 22). The assay used monoclonal anti-Nodal antibody (designated 3D1) to coat an ELISA dish to capture rNodal (recombinant Nodal) from solutions with different concentrations of rNodal and a second, rabbit monoclonal anti-Nodal antibody to detect the captured rNodal. The resulting captured rNodal-antibody complex was then detected with an anti-rabbit antibody conjugated to horseradish peroxidase and a QuantaRed enhanced chemifluorescent horseradish peroxidase substrate.
# By epitope mapping of commercially available Nodal antibodies and 3D1 mAb, the latter was chosen as the capture antibody for coating ELISA dishes, while a rabbit monoclonal anti-Nodal (Abcam) served for detecting the bound Nodal. The immune complex was subsequently quantified using a horseradish peroxidase-conjugated anti-rabbit antibody in conjunction with QuantaRed enhanced chemifluorescent horseradish peroxidase substrate (ThermoFisher). The established sandwich ELISA assay detects Nodal as a recombinant protein in conditioned media from human embryonic stem cells and in biological fluids with a detection limit (calculated using recombinant Nodal) of […]. Human serum samples from breast cancer patients were purchased from BioOptions (Brea, Calif.).
molecule,measurement,setting,value
B1,formation of vasculogenic mimicry networks (junctions and tubules),C8161 cells,did not complete the formation of networks
same,formation of vasculogenic mimicry networks (junctions and tubules),C8161 cells; listed as 3D1 mAb,unable to form complete networks characteristic of VM; also recorded: significant reduction in the ability to form junctions and tubules
same,Nodal expression,[1],more dramatic reduction in Nodal expression
same,Nodal expression,[1]; listed as 3D1 mAb,significantly reduced
same,inhibition of Nodal protein expression,"C8161 melanoma cells; 4 μg/ml, 72 hours, Western blot vs IgG control",50%
same,phosphorylation of Smad2 and MAPK (ERK1/2),C8161 melanoma cells; 4 μg/ml,reduced phosphorylation of Smad2 and MAPK
same,phosphorylation of Smad2 and MAPK (ERK1/2),"C8161 melanoma cells; 4 μg/ml, listed as 3D1 mAb",reduction in phosphorylation; also recorded: reduced
same,p27 level,C8161 melanoma cells; 72 hr,increases
same,phospho-Histone H3 (P-H3) level,C8161 melanoma cells; 72 hr,increases
same,Nodal expression,"C8161 melanoma cells; 72 hr, 4 μg/ml, vs IgG control, listed as 3D1 mAb",reduction in Nodal expression
same,Cyclin B1 level,"C8161 melanoma cells; 72 hr, listed as 3D1 mAb",reduced; also recorded: reduction
same,p27 level,"C8161 melanoma cells; 72 hr, listed as 3D1 mAb",increase
same,phospho-Histone H3 (P-H3) level,"C8161 melanoma cells; 72 hr, listed as 3D1 mAb",reduction
same,detection limit for Nodal,recombinant Nodal,50 pg/well
same,detection limit for Nodal,recombinant Nodal; listed as 3D1 mAb,75 pg/well
